In patent US20250043313:

Target: SuperFi-Cas9 (7-D Cas9) 7-D: seven RuvC loop residues shown in FIG. 4b each mutated to Asp (individual residues not listed in text) (Streptococcus pyogenes) (UniProt Q99ZW2)
Assay: cleavage_in_vitro
Conditions: PAM TGG, 10 mM Mg2+, 37 C

| Sequence | activity (kobs +/- 0.0002, amplitude 8.4 nM, 500-fold slower than on-target) | activity (kobs +/- 0.1, amplitude 7.7 nM, 6.3-fold preference over 18-20 MM in competition) |
| --- | --- | --- |
| GACGCAUAAAGAUGAGACGC / AGCTGACGTTTGTACTCCAGCGTCTCATCTTTATGCCAGAGCAGAGATTTCTGCT / AGCAGAAATCTCTGCTCTGGCATAAAGATGAGACGCTGGAGTACAAACGTCAGCT [sgRNA ; 18-20 MM DNA] | 0.004 s⁻¹ | – |
| GACGCAUAAAGAUGAGACGC / AGCTGACGTTTGTACTCCAGCGTCTCATCTTTATGCGTCAGCAGAGATTTCTGCT / AGCAGAAATCTCTGCTGACGCATAAAGATGAGACGCTGGAGTACAAACGTCAGCT [sgRNA ; On-target DNA] | – | 2 s⁻¹ |
